Starred links: 1 amine or outer side, 2 acyl side, 3 side chain; linkers in the order of their positions; H or OH if unused. Positions of bridges follow the written chain, without caps; N, C: chain ends. Non-standard residues stand in square brackets, D forms with d. Groups on a side chain read outwards from the residue. *: point of attachment. Trp(1-Me) = Cn1cc(C[C@H](N)C(=O)O)c2ccccc21; C18 diacid = O=C(O)CCCCCCCCCCCCCCCCC(=O)*; C16 diacid = O=C(O)CCCCCCCCCCCCCCC(=O)*; γGlu = O=C(O)[C@H](CCC(=O)[*:2])N[*:1]; hCys = N[C@@H](CCS)C(=O)O; AEEA = NCCOCCOCC(=O)O; Sar = CNCC(=O)O
B1: Compound 158 (peptide)
peptide: Ac-EFAI[Trp(1-Me)]QEWGEHR[hCys][Sar]EA[AEEA][AEEA]K([γGlu-Gly-γGlu-C18 diacid])-NH2
modifications: thioether 3-13
SMILES: CC[C@H](C)[C@@H]1NC(=O)[C@@H](NC(=O)[C@H](Cc2ccccc2)NC(=O)[C@H](CCC(=O)O)NC(C)=O)CSCC[C@@H](C(=O)N(C)CC(=O)N[C@@H](CCC(=O)O)C(=O)N[C@@H](C)C(=O)NCCOCCOCC(=O)NCCOCCOCC(=O)N[C@@H](CCCCNC(=O)CC[C@H](NC(=O)CNC(=O)CC[C@H](NC(=O)CCCCCCCCCCCCCCCCC(=O)O)C(=O)O)C(=O)O)C(N)=O)NC(=O)[C@H](CCCNC(=N)N)NC(=O)[C@H](Cc2c[nH]cn2)NC(=O)[C@H](CCC(=O)O)NC(=O)CNC(=O)[C@H](Cc2c[nH]c3ccccc23)NC(=O)[C@H](CCC(=O)O)NC(=O)[C@H](CCC(N)=O)NC(=O)[C@H](Cc2cn(C)c3ccccc23)NC1=O
B2: Compound 143 (peptide)
peptide: Ac-SEFCI[Trp(1-Me)]QDWGEHRC[Sar]EGE[AEEA][AEEA][AEEA]K([γGlu-Gly-γGlu-C18 diacid])-NH2
modifications: disulfide 4-14
SMILES: CC[C@H](C)[C@@H]1NC(=O)[C@@H](NC(=O)[C@H](Cc2ccccc2)NC(=O)[C@H](CCC(=O)O)NC(=O)[C@H](CO)NC(C)=O)CSSC[C@@H](C(=O)N(C)CC(=O)N[C@@H](CCC(=O)O)C(=O)NCC(=O)N[C@@H](CCC(=O)O)C(=O)NCCOCCOCC(=O)NCCOCCOCC(=O)NCCOCCOCC(=O)N[C@@H](CCCCNC(=O)CC[C@H](NC(=O)CNC(=O)CC[C@H](NC(=O)CCCCCCCCCCCCCCCCC(=O)O)C(=O)O)C(=O)O)C(N)=O)NC(=O)[C@H](CCCNC(=N)N)NC(=O)[C@H](Cc2c[nH]cn2)NC(=O)[C@H](CCC(=O)O)NC(=O)CNC(=O)[C@H](Cc2c[nH]c3ccccc23)NC(=O)[C@H](CC(=O)O)NC(=O)[C@H](CCC(N)=O)NC(=O)[C@H](Cc2cn(C)c3ccccc23)NC1=O
B3: Compound 133 (peptide)
peptide: Ac-SEFCI[Trp(1-Me)]QDWGEHRCTEK[γGlu]GGGK([γGlu-Gly-γGlu-C18 diacid])-NH2
modifications: disulfide 4-14
SMILES: CC[C@H](C)[C@@H]1NC(=O)[C@@H](NC(=O)[C@H](Cc2ccccc2)NC(=O)[C@H](CCC(=O)O)NC(=O)[C@H](CO)NC(C)=O)CSSC[C@@H](C(=O)N[C@H](C(=O)N[C@@H](CCC(=O)O)C(=O)N[C@@H](CCCCN)C(=O)N[C@@H](CCC(=O)NCC(=O)NCC(=O)NCC(=O)N[C@@H](CCCCNC(=O)CC[C@H](NC(=O)CNC(=O)CC[C@H](NC(=O)CCCCCCCCCCCCCCCCC(=O)O)C(=O)O)C(=O)O)C(N)=O)C(=O)O)[C@@H](C)O)NC(=O)[C@H](CCCNC(=N)N)NC(=O)[C@H](Cc2c[nH]cn2)NC(=O)[C@H](CCC(=O)O)NC(=O)CNC(=O)[C@H](Cc2c[nH]c3ccccc23)NC(=O)[C@H](CC(=O)O)NC(=O)[C@H](CCC(N)=O)NC(=O)[C@H](Cc2cn(C)c3ccccc23)NC1=O
B4: Compound 145 (peptide)
peptide: Ac-EFCI[Trp(1-Me)]QDWGEHRC[Sar]EA[AEEA][AEEA]K([γGlu-Gly-γGlu-C18 diacid])-NH2
modifications: disulfide 3-13
SMILES: CC[C@H](C)[C@@H]1NC(=O)[C@@H](NC(=O)[C@H](Cc2ccccc2)NC(=O)[C@H](CCC(=O)O)NC(C)=O)CSSC[C@@H](C(=O)N(C)CC(=O)N[C@@H](CCC(=O)O)C(=O)N[C@@H](C)C(=O)NCCOCCOCC(=O)NCCOCCOCC(=O)N[C@@H](CCCCNC(=O)CC[C@H](NC(=O)CNC(=O)CC[C@H](NC(=O)CCCCCCCCCCCCCCCCC(=O)O)C(=O)O)C(=O)O)C(N)=O)NC(=O)[C@H](CCCNC(=N)N)NC(=O)[C@H](Cc2c[nH]cn2)NC(=O)[C@H](CCC(=O)O)NC(=O)CNC(=O)[C@H](Cc2c[nH]c3ccccc23)NC(=O)[C@H](CC(=O)O)NC(=O)[C@H](CCC(N)=O)NC(=O)[C@H](Cc2cn(C)c3ccccc23)NC1=O
B5: Compound 159 (peptide)
peptide: EGSAYAIWQDWGEHRCGEKEK
modifications: not fully specified; N-acetyl; C-terminal amide; delta-cystathionine (Ctt2) thioether bridge A6-hCys16 (hCys written C); W8 is 1-Me-Trp; G17 is Sar; E20 is γGlu; K21 side chain bears [17-carboxy-heptadecanoyl][γGlu][Peg3][Peg3]
B6: Compound 132 (peptide)
peptide: Ac-SEFCI[Trp(1-Me)]QDWGEHRC[Sar]EK[γGlu]GGGK([γGlu-Gly-γGlu-C18 diacid])-NH2
modifications: disulfide 4-14
SMILES: CC[C@H](C)[C@@H]1NC(=O)[C@@H](NC(=O)[C@H](Cc2ccccc2)NC(=O)[C@H](CCC(=O)O)NC(=O)[C@H](CO)NC(C)=O)CSSC[C@@H](C(=O)N(C)CC(=O)N[C@@H](CCC(=O)O)C(=O)N[C@@H](CCCCN)C(=O)N[C@@H](CCC(=O)NCC(=O)NCC(=O)NCC(=O)N[C@@H](CCCCNC(=O)CC[C@H](NC(=O)CNC(=O)CC[C@H](NC(=O)CCCCCCCCCCCCCCCCC(=O)O)C(=O)O)C(=O)O)C(N)=O)C(=O)O)NC(=O)[C@H](CCCNC(=N)N)NC(=O)[C@H](Cc2c[nH]cn2)NC(=O)[C@H](CCC(=O)O)NC(=O)CNC(=O)[C@H](Cc2c[nH]c3ccccc23)NC(=O)[C@H](CC(=O)O)NC(=O)[C@H](CCC(N)=O)NC(=O)[C@H](Cc2cn(C)c3ccccc23)NC1=O
B7: Compound 156 (peptide)
peptide: Ac-SEFAI[Trp(1-Me)]QDWGEHR[hCys]TEGE[AEEA][AEEA]K([γGlu-Gly-γGlu-C18 diacid])-NH2
modifications: thioether 4-14
SMILES: CC[C@H](C)[C@@H]1NC(=O)[C@@H](NC(=O)[C@H](Cc2ccccc2)NC(=O)[C@H](CCC(=O)O)NC(=O)[C@H](CO)NC(C)=O)CSCC[C@@H](C(=O)N[C@H](C(=O)N[C@@H](CCC(=O)O)C(=O)NCC(=O)N[C@@H](CCC(=O)O)C(=O)NCCOCCOCC(=O)NCCOCCOCC(=O)N[C@@H](CCCCNC(=O)CC[C@H](NC(=O)CNC(=O)CC[C@H](NC(=O)CCCCCCCCCCCCCCCCC(=O)O)C(=O)O)C(=O)O)C(N)=O)[C@@H](C)O)NC(=O)[C@H](CCCNC(=N)N)NC(=O)[C@H](Cc2c[nH]cn2)NC(=O)[C@H](CCC(=O)O)NC(=O)CNC(=O)[C@H](Cc2c[nH]c3ccccc23)NC(=O)[C@H](CC(=O)O)NC(=O)[C@H](CCC(N)=O)NC(=O)[C@H](Cc2cn(C)c3ccccc23)NC1=O
B8: Compound 134 (peptide)
peptide: Ac-EFCI[Trp(1-Me)]QDWGEHRCEGEK([γGlu-Gly-γGlu-C18 diacid])-NH2
modifications: disulfide 3-13
SMILES: CC[C@H](C)[C@@H]1NC(=O)[C@@H](NC(=O)[C@H](Cc2ccccc2)NC(=O)[C@H](CCC(=O)O)NC(C)=O)CSSC[C@@H](C(=O)N[C@@H](CCC(=O)O)C(=O)NCC(=O)N[C@@H](CCC(=O)O)C(=O)N[C@@H](CCCCNC(=O)CC[C@H](NC(=O)CNC(=O)CC[C@H](NC(=O)CCCCCCCCCCCCCCCCC(=O)O)C(=O)O)C(=O)O)C(N)=O)NC(=O)[C@H](CCCNC(=N)N)NC(=O)[C@H](Cc2c[nH]cn2)NC(=O)[C@H](CCC(=O)O)NC(=O)CNC(=O)[C@H](Cc2c[nH]c3ccccc23)NC(=O)[C@H](CC(=O)O)NC(=O)[C@H](CCC(N)=O)NC(=O)[C@H](Cc2cn(C)c3ccccc23)NC1=O
B9: Compound 155 (peptide)
peptide: Ac-GEFAI[Trp(1-Me)]QEWGEHR[hCys][Sar]EGE[AEEA]ESK([γGlu-Gly-γGlu-C18 diacid])-NH2
modifications: thioether 4-14
SMILES: CC[C@H](C)[C@@H]1NC(=O)[C@@H](NC(=O)[C@H](Cc2ccccc2)NC(=O)[C@H](CCC(=O)O)NC(=O)CNC(C)=O)CSCC[C@@H](C(=O)N(C)CC(=O)N[C@@H](CCC(=O)O)C(=O)NCC(=O)N[C@@H](CCC(=O)O)C(=O)NCCOCCOCC(=O)N[C@@H](CCC(=O)O)C(=O)N[C@@H](CO)C(=O)N[C@@H](CCCCNC(=O)CC[C@H](NC(=O)CNC(=O)CC[C@H](NC(=O)CCCCCCCCCCCCCCCCC(=O)O)C(=O)O)C(=O)O)C(N)=O)NC(=O)[C@H](CCCNC(=N)N)NC(=O)[C@H](Cc2c[nH]cn2)NC(=O)[C@H](CCC(=O)O)NC(=O)CNC(=O)[C@H](Cc2c[nH]c3ccccc23)NC(=O)[C@H](CCC(=O)O)NC(=O)[C@H](CCC(N)=O)NC(=O)[C@H](Cc2cn(C)c3ccccc23)NC1=O

The binders below were run against Human C3 (human, UniProt P01024 23-1663) (assay: cell-based or functional assay).
Sequence of Human C3 (P01024 23-1663 limits assumed): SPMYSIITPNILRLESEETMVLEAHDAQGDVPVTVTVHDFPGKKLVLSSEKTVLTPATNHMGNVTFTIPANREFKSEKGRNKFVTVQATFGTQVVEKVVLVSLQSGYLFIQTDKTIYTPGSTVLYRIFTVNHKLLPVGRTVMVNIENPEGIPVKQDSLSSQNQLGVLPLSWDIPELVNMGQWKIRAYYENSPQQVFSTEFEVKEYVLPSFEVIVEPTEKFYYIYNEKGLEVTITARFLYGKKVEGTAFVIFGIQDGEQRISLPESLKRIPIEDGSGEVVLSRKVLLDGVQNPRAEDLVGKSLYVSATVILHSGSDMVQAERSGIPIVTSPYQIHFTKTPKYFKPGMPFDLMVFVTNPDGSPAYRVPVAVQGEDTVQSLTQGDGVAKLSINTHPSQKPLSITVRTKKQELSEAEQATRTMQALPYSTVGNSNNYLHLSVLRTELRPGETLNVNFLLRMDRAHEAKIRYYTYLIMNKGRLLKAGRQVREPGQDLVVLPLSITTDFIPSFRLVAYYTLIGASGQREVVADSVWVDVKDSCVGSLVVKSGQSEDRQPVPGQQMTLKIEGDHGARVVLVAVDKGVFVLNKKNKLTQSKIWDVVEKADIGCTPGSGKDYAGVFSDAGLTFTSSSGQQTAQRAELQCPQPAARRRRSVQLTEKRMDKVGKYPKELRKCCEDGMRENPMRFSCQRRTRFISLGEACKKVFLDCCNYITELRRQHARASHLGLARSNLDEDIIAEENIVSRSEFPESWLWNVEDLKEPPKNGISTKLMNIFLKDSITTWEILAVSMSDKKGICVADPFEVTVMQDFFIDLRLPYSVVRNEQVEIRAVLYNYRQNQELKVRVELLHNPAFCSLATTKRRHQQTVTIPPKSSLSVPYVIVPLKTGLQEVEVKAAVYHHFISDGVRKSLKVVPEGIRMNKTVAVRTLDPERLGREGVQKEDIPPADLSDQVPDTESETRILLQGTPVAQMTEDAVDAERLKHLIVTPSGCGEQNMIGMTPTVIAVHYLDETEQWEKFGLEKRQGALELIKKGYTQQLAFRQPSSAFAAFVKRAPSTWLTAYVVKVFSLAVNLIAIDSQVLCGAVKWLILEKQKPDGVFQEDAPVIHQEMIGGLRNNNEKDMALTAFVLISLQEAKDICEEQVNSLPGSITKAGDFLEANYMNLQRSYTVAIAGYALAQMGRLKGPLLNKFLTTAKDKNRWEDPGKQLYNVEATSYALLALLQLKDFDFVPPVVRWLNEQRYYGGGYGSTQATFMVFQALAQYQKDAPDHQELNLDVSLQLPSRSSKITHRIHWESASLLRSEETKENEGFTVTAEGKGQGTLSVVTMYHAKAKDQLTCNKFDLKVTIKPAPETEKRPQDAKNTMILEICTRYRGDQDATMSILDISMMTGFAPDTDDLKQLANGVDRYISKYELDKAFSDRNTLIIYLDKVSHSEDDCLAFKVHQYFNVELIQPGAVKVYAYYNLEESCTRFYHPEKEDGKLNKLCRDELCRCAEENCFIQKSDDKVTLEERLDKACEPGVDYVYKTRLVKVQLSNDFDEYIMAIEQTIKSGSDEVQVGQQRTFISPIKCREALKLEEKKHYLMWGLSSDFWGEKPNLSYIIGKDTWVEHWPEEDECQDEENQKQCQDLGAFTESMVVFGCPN

Row | Binder | IC50[nM], inhibition of hemolysis [nM]
1 | Ac-SEFAI[Trp(1-Me)]QDWGEHR[hCys][Sar]EGE[AEEA][AEEA]K([γGlu-Gly-γGlu-C16 diacid])-NH2 (thioether 4-14) [Compound 160] | < 100
2 | B1 | < 250
3 | Ac-SEFAI[Trp(1-Me)]QDWGEHR[hCys]TEGE[AEEA]ESK([γGlu-C18 diacid])-OH (thioether 4-14) [Compound 163] | < 100
4 | B2 | < 100
5 | Ac-SEFAI[Trp(1-Me)]QDW[Sar]EHR[hCys][Sar]E[AEEA][AEEA]K([γGlu-Gly-γGlu-C18 diacid])-OH (thioether 4-14) [Compound 162] | < 100
6 | Ac-SEFCI[Trp(1-Me)]QDWGEHRC[Sar]EGE[AEEA]K([γGlu-Gly-γGlu-C18 diacid])-NH2 (disulfide 4-14) [Compound 138] | < 100
7 | B3 | < 100
8 | B4 | < 100
9 | Ac-SEFCI[Trp(1-Me)]QDWGEHRCTEGE[8‑aminooctanoyl]EK([γGlu-Gly-γGlu-C18 diacid])-NH2 (disulfide 4-14) [Compound 137] | < 100
10 | B5 | < 100
11 | B6 | < 100
12 | Ac-SEFCI[Trp(1-Me)]QDWGEHRCTGAESK([γGlu-Gly-γGlu-15‑carboxy‑hexadecanoyl])-NH2 (disulfide 4-14) [Compound 135] | < 100
13 | B7 | < 100
14 | B8 | < 100
15 | Ac-SEFCI[Trp(1-Me)]QDWGEHRCTEGE[8‑aminooctanoyl]K([γGlu-Gly-γGlu-C18 diacid])-NH2 (disulfide 4-14) [Compound 136] | < 100
16 | B9 | < 100

Source: patent publication US20220306695A1, “COMPSTATIN ANALOGUES AND THEIR MEDICAL USES” (priority 2019, published 2022)
